± gives the standard error. This sample holds only a part of the variants without activity.

Consider 34 variants from the supplement of paper PMC7125110.

Sequences and labels used below:
B1: glmS ribozyme (parent)
chain: AUAAAAGCGCCAGAACUACAGAAAUGUAGUUGACGAGGAGGAGGUUUAUCGAAUUUUCGGCGGAUGCCUCCAAA

Common to all, as to details: with glucosamine-6-phosphate
The variants in series [1] derive from B1. In words: self-cleavage kobs at 640 uM GlcN6P; higher = faster cleavage; RNA array. The essentials:
(§1)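 Tiles bearing barcoded ribozyme variants, transcribed in situ by E. coli RNA polymerase on sequenced MiSeq chips, were imaged over ~14 h at 37 °C using a hybridised Cy3 probe. Glucosamine-6-phosphate was supplied at 40 μM to 10 mM in HEPES/KCl/Mg(OAc)2 buffer. kobs came from one- or two-exponential decay fits to normalised per-tile medians, and weighted Michaelis–Menten fits then provided kcat and KM.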

Series [2] covers variants of B1. In words: self-cleavage kobs at 2500 uM GlcN6P; higher = faster cleavage; RNA array. The essentials:
as §1

Series [3] covers variants of B1. In words: self-cleavage kobs at 10000 uM GlcN6P; higher = faster cleavage; RNA array. The essentials:
as §1

Take A12U A52U G60A: the “self-cleavage kobs at 640 uM GlcN6P” value in the series with glucosamine-6-phosphate [1] is less than 1e-05 s⁻¹.
Take A6U G32C C67G: in the series with glucosamine-6-phosphate [1], the “self-cleavage kobs at 640 uM GlcN6P” value is less than 1e-05 s⁻¹. The “self-cleavage kobs at 2500 uM GlcN6P” value with glucosamine-6-phosphate [2] is less than 1e-05 s⁻¹.
As to C10G G13A G43A C50U, the “self-cleavage kobs at 640 uM GlcN6P” value with glucosamine-6-phosphate [1] is less than 1e-05 s⁻¹. Also, the “self-cleavage kobs at 2500 uM GlcN6P” value in the series with glucosamine-6-phosphate [2] is less than 1e-05 s⁻¹. Besides, the “self-cleavage kobs at 10000 uM GlcN6P” value with glucosamine-6-phosphate [3] was less than 1e-05 s⁻¹.
As for C34U C58U U65A, the “self-cleavage kobs at 2500 uM GlcN6P” value with glucosamine-6-phosphate [2] was less than 1e-05 s⁻¹.
Consider G35C G38A A64G, for which the “self-cleavage kobs at 640 uM GlcN6P” value in the series with glucosamine-6-phosphate [1] was less than 1e-05 s⁻¹. Moreover, the “self-cleavage kobs at 2500 uM GlcN6P” value with glucosamine-6-phosphate [2] is less than 1e-05 s⁻¹.
With G29A A33U G44U, the “self-cleavage kobs at 640 uM GlcN6P” value with glucosamine-6-phosphate [1] is less than 1e-05 s⁻¹.
Take C8G G43A: the “self-cleavage kobs at 640 uM GlcN6P” value with glucosamine-6-phosphate [1] was less than 1e-05 s⁻¹. Further, the “self-cleavage kobs at 2500 uM GlcN6P” value with glucosamine-6-phosphate [2] was less than 1e-05 s⁻¹.
With G7A G37A G60U A64U, the “self-cleavage kobs at 640 uM GlcN6P” value with glucosamine-6-phosphate [1] is less than 1e-05 s⁻¹.
Turning to U30A U69G C71A, the “self-cleavage kobs at 640 uM GlcN6P” value in the series with glucosamine-6-phosphate [1] came out at 0.00266 ± 0.00078 s⁻¹.
As to G40C G41A G43U, in the series with glucosamine-6-phosphate [1], the “self-cleavage kobs at 640 uM GlcN6P” value is less than 1e-05 s⁻¹.
As for A14G G38C G44A, the “self-cleavage kobs at 640 uM GlcN6P” value with glucosamine-6-phosphate [1] was less than 1e-05 s⁻¹. Further, in the series with glucosamine-6-phosphate [2], the “self-cleavage kobs at 2500 uM GlcN6P” value is less than 1e-05 s⁻¹. Also, the “self-cleavage kobs at 10000 uM GlcN6P” value in the series with glucosamine-6-phosphate [3] was less than 1e-05 s⁻¹.
As for A15U C50G G66C C71G, the “self-cleavage kobs at 640 uM GlcN6P” value with glucosamine-6-phosphate [1] came out at 7.22e-05 ± 2.8e-05 s⁻¹. Besides, the “self-cleavage kobs at 2500 uM GlcN6P” value with glucosamine-6-phosphate [2] was 9.27e-05 ± 3e-05 s⁻¹.
For the variant A15C A36C A48U, the “self-cleavage kobs at 2500 uM GlcN6P” value with glucosamine-6-phosphate [2] is less than 1e-05 s⁻¹.
On to C10U C58G C67A, for which the “self-cleavage kobs at 640 uM GlcN6P” value in the series with glucosamine-6-phosphate [1] worked out at 0.000107 ± 3.8e-05 s⁻¹.
Take G40U C50A C67G: the “self-cleavage kobs at 640 uM GlcN6P” value with glucosamine-6-phosphate [1] is less than 1e-05 s⁻¹.
As for C8U A12C A15C A33C U45G C50G, the “self-cleavage kobs at 2500 uM GlcN6P” value in the series with glucosamine-6-phosphate [2] is less than 1e-05 s⁻¹.
Turning to C10A A12C G63C C71G, in the series with glucosamine-6-phosphate [1], the “self-cleavage kobs at 640 uM GlcN6P” value was less than 1e-05 s⁻¹.
Take A6G G7A C11G G32A U45G: the “self-cleavage kobs at 640 uM GlcN6P” value in the series with glucosamine-6-phosphate [1] is less than 1e-05 s⁻¹.
Take G38C G43U A64C: the “self-cleavage kobs at 640 uM GlcN6P” value with glucosamine-6-phosphate [1] was less than 1e-05 s⁻¹. The “self-cleavage kobs at 2500 uM GlcN6P” value with glucosamine-6-phosphate [2] is less than 1e-05 s⁻¹.
Turning to G37C G59C, in the series with glucosamine-6-phosphate [1], the “self-cleavage kobs at 640 uM GlcN6P” value is less than 1e-05 s⁻¹. In addition, the “self-cleavage kobs at 2500 uM GlcN6P” value with glucosamine-6-phosphate [2] was less than 1e-05 s⁻¹. For the same variant, in the series with glucosamine-6-phosphate [3], the “self-cleavage kobs at 10000 uM GlcN6P” value is less than 1e-05 s⁻¹.
C11A U54G C67G C71A: the “self-cleavage kobs at 640 uM GlcN6P” value with glucosamine-6-phosphate [1] was 0.0001 ± 4e-05 s⁻¹. The “self-cleavage kobs at 2500 uM GlcN6P” value in the series with glucosamine-6-phosphate [2] was 0.000224 ± 8.9e-05 s⁻¹.
As to U49C U65C U69A, the “self-cleavage kobs at 640 uM GlcN6P” value with glucosamine-6-phosphate [1] is less than 1e-05 s⁻¹. Moreover, in the series with glucosamine-6-phosphate [2], the “self-cleavage kobs at 2500 uM GlcN6P” value is less than 1e-05 s⁻¹.
For the variant A15G G38U G59C, in the series with glucosamine-6-phosphate [1], the “self-cleavage kobs at 640 uM GlcN6P” value was less than 1e-05 s⁻¹.
G40U G41C C70A: in the series with glucosamine-6-phosphate [1], the “self-cleavage kobs at 640 uM GlcN6P” value came out at 6.65e-05 ± 1.8e-05 s⁻¹. In addition, in the series with glucosamine-6-phosphate [2], the “self-cleavage kobs at 2500 uM GlcN6P” value is 0.000546 ± 0.00013 s⁻¹.
For the variant G13U A64U C70G, in the series with glucosamine-6-phosphate [1], the “self-cleavage kobs at 640 uM GlcN6P” value was less than 1e-05 s⁻¹.
On the same count and under the same terms, the figure for G60U G66C C70U is less than 1e-05 s⁻¹.
In the case of C8U U49A U69G, the “self-cleavage kobs at 640 uM GlcN6P” value with glucosamine-6-phosphate [1] was found to be 0.000871 ± 0.00023 s⁻¹. Also, the “self-cleavage kobs at 2500 uM GlcN6P” value with glucosamine-6-phosphate [2] is 0.000796 ± 0.00037 s⁻¹.
Take C8G G41U C61A: the “self-cleavage kobs at 640 uM GlcN6P” value with glucosamine-6-phosphate [1] was less than 1e-05 s⁻¹.
As for G7C G9C A36G G51C, the “self-cleavage kobs at 640 uM GlcN6P” value in the series with glucosamine-6-phosphate [1] was less than 1e-05 s⁻¹.
Take G7U U31C G32C G35C A36C C71U: in the series with glucosamine-6-phosphate [2], the “self-cleavage kobs at 2500 uM GlcN6P” value is less than 1e-05 s⁻¹.
On to G9U U49G A52C A64C, for which the “self-cleavage kobs at 640 uM GlcN6P” value with glucosamine-6-phosphate [1] was less than 1e-05 s⁻¹.
A14U C67U C68G: the “self-cleavage kobs at 640 uM GlcN6P” value in the series with glucosamine-6-phosphate [1] turned out to be 0.000113 ± 3.4e-05 s⁻¹.
Same read-out and setting: the figure for C10U G35U G51A is less than 1e-05 s⁻¹.
On to G37A C61A C70U, for which, in the series with glucosamine-6-phosphate [1], the “self-cleavage kobs at 640 uM GlcN6P” value was less than 1e-05 s⁻¹. Also, the “self-cleavage kobs at 2500 uM GlcN6P” value with glucosamine-6-phosphate [2] is less than 1e-05 s⁻¹. Besides, in the series with glucosamine-6-phosphate [3], the “self-cleavage kobs at 10000 uM GlcN6P” value is less than 1e-05 s⁻¹.
